The DeepSol protein solubility set

Assay: soluble on expression in E. coli; label from the status in PepcDB or PDB records

Soluble on expression in E. coli, not soluble:
MGSDKIHHHHHHMLISLEDTNYTLVKEYLEKSVNHHILQRYIDNHNFPIIEKSYHKYLTFESLEEDFTYILKDGIVKQSVLSKYGMEFNLRYVTGLEITSVLNTGYSKDMGEPYNVRIESEKASFYKVRRSAFLKDINEDIELQGYVKDFYHNRLQKSMKKMQCMLTNGRIGAISTQIYDLMTLFGEELPNGQILINFVITNEELGKFCGISTASSVSRILKQLKEKNIIRIDKQHIIITNLDKLKDNIVF
MGSDKIHHHHHHMLKIGKRNPNKPLVIENDQVVSLYFDARGVQSTMLRHDPYALALGYTRTMMGFLLFRPSPCRISMIGLGGGSLAKYCYRHLPDTAITAIEINPDVIALRDHFHVPRDDGRFTVVCADGAQYVAVPGHRPDVLLVDGFNADGLPARLGSSAFYEACRRRLSDDGVLVANLVTDEPDFHRYLRALWEVFAGAVALAPSEGSEHNVTVFAWKGAGGLPSFAAMLDRARALQARHAVNLHATATRIEYGKKFNWSRYGRTA
MGSDKIHHHHHHMLKNSAKNFVENIEKKLYLSIKEKTDSITFKLEKVLKAFSDSHLNVQHFASLTGYGHGDLGRDIIDKIFANVLDAEKAAVRLQLVSGTHAITSSLFGVLRPGDGLLSVTGRPYESLEEVIGLRGNGKGSLIEFGIAYEEISLKDDGNIDFLALEKALKIPRKLIFIQRSCGYTWRPSLSIEVIKEICYLCHKIQPNCICFVDNCYGEFVETNEPTSVGADLIAGSLIKNLGGTIVPTGGYIAGKADLVDKACCRLTAPGIGSEGGITFDLNRTILQGLFLAPQMVSEALIGAEIISTSFSELGFKVLPTPASKRTDLIQIVRIGDPKILQIICRSFQEKSPIGSFLDPIPAPMPGYENNLVMAGGTFVDGSTSEFSADAPMKPPFDLFIQGGSHRAHVKIALIHALSNLFQAGLIKLPQND
MGSDKIHHHHHHMLKPSDKWSWYFSDSEGYLMLNLGDDMLFRTNLSRNLLVDCAFIENPFTVDDASDFQLYKEHIACLPLSEPRKAELALYCVAAKRFHKPVQPKSWFFDVQGTGYTPQQGQLISLRNSLNSGIFIALEVGENATLCAYSDLVSFALNGSKTLEFGQVIKVMHDRMSDVNTLLYTPQMAMVS
MGSDKIHHHHHHMLLGRTANGLYWMNRYIERAENMARLVDAGLRMALTRTQNASEEWNSVLLSAGSDVAFKQKYSDYTAADVADFLLRDTSNPSSTMSSIETARNNARMVRTALTRETWESINEAWMSLKRMLARPIDERDLPSVLDAIKRETALIRGSFYGTMLRNEIFDFSQLGTYVERADNTARILDVKYYVLLPSISWVGSTLDNYQWESILRSVSAHRSYRWVYDADYKPTNIADYLILNVRMPRSLTFCYRFLSEHLKFLSDDYGERHACHATAEKTQAMLRAGSIKDIFDAGLHEFLAGFIRDNTRLGDEIAQDYRFY
MGSDKIHHHHHHMLLTDLVTPPDTALCAAAEEMARMASDPFLYNHVSRSYIFGALAARATGTQYDPELFYIAAMLHDLGLTETYMAEDRFEVDAAEAAAKFLAAQNVEQSRIDRVWDAIALHTTFSIPQKKSPEAALVQIGAGLDVGVMPHDHITPEVMEQVLDAYPRLGFKKAMEQALIKVYAAKPMTAMHNFGADVAHRHVPDFHPPHFCDVLHGADFPE
MGSDKIHHHHHHMLLYIHGFNSSPFSDKAVITARYMAEYHPSLTFHQPQLPNTPKAAMALLQSYVEAAQQANEPLNYIGSSLGGYFASYLAERYGGRAVLVNPAVKPFELFDEFMGPQFNPYTQEHYQVLPEHKREVAEFNTPVIRNPERFLVLLQTGDEVLDYREALHKYHHCQLRIESGGDHSFVGYERYLQTVSQFLHLP
MGSDKIHHHHHHMLNMNFDEQVFINTQEQPWVASPKAGVWRKPLAREDAERGHATSLVKFDPGASFTEHDHPLGEEILVLSGTFSDHTGDYHAGSYFRNPEGFRHAPFSKDGCILLVKLHQFQSGDNEHVVIDTANKSWSPGMGNLMVMPLHSFEGESTALVKWPKDERFQPHKHFGGEEIFVISGEFIDEHGRYPEGSWIRSPHLSEHFPYVEQETIILVKVGHL
MGSDKIHHHHHHMLNQVYRLVSPRQFEVETVAEEVDADDLIVRPKFLSICHADTRYFFGQRSQAALRAKLPMALIHEAVGEVVYDPRNEYKPGTLVAMVPNTPVKKDSIIQENYLPSSRFRSSGYDGFMQEYVCLRRDRAITVPSDFDPHMAAFIEMVSVGVQALTKLESTMDEDQRVIGIWGDGNLGYITATLVKQIFPDSQLLVFGRHQSKLDYFSFADKTYLVDDIPADVKVSQALECTGGQGSEAAIQQIIQHIQPMGTAILMGVSENPVGIDTRSVLAEGLTLRGVSRSSREDFKRAVDILSSSPVTRERLQNLVGYVQKVSSIQDITNFFDSALTNYWGKEVMEWDV
